Test results: patent publication US20210205411A1, “CCR5 INHIBITOR FOR USE IN TREATING CANCER” (ORION BIOTECHNOLOGY SWITZERLAND SÀRL, priority 2018, published 2021)

T1: recombinant human CCR1 (Homo sapiens, UniProt P32246)
T1 construct: host or cells: CHO-K1 cells (membrane extracts)
T1 sequence (P32246 1-355): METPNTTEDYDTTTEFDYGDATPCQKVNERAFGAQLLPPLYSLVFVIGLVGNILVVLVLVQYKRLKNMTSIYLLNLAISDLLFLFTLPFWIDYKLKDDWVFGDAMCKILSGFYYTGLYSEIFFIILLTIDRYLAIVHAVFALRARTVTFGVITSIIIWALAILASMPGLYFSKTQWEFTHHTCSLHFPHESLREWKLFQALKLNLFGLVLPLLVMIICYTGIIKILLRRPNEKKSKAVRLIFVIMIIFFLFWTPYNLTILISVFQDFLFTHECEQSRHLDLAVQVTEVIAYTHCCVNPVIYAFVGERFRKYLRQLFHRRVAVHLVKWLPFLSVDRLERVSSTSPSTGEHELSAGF

T2: recombinant human CCR3 (Homo sapiens, UniProt P51677)
T2 construct: host or cells: CHO-K1 cells (membrane extracts)
T2 sequence (P51677 1-355): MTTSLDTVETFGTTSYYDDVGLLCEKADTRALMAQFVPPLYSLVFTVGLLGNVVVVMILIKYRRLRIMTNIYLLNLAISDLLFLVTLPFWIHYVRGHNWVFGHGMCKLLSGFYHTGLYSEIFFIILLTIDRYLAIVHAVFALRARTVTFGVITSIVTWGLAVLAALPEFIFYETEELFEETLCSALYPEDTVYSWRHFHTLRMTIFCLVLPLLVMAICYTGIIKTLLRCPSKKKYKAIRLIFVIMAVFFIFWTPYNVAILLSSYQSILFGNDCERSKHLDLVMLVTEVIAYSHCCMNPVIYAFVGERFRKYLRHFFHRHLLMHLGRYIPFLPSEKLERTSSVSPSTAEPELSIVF

B1: PRO-140 (antibody, INN chains, looked up, V domains shown)
VH: EVQLVESGGGLVKPGGSLRLSCAASGYTFSNYWIGWVRQAPGKGLEWIGDIYPGGNYIRNNEKFKDKTTLSADTSKNTAYLQMNSLKTEDTAVYYCGSSFGSNYVFAWFTYWGQGTLVTVSS
VL: DIVMTQSPLSLPVTPGEPASISCRSSQRLLSSYGHTYLHWYLQKPGQSPQLLIYEVSNRFSGVPDRFSGSGSGTDFTLKISRVEAEDVGVYYCSQSTHVPLTFGQGTKVEIK
B2: 5P12-RANTES: N-terminally modified RANTES variant (SEQ ID NO: 70), CCR5 inhibitor (protein)
chain: QGPPLMATQSCCFAYIARPLPRAHIKEYFYTSGKCSNPAVVFVTRKNRQVCANPEKKWVREYINSLEMS
modifications: ends and bridges not checked

Key:
[1] = target: T3, human CCR5 (Homo sapiens, UniProt P51681); experiment: cell-based or functional assay
T3 sequence (P51681 whole entry): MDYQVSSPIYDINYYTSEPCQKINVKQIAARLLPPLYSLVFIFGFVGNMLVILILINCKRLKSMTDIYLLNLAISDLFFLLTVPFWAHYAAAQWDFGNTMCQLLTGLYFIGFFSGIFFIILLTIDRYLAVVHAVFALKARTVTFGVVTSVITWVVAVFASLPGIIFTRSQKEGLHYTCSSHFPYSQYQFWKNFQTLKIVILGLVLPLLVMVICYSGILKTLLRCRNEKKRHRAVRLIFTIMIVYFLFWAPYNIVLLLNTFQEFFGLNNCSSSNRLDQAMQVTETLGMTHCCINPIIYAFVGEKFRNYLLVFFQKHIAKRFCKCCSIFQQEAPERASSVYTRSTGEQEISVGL

[2] = target: T3, human CCR5; experiment: CCR5 signaling inhibition, aequorin calcium sensor in CHO cells, agonist human MIP-1β/CCL4; conditions: read-out: IC50, inhibition of CCR5 signaling (FIG. 1C), CHO cells expressing human CCR5, agonist MIP-1β/CCL4, n=2
From the text: The signaling activity measured in the cells at each inhibitor concentration is expressed as a percentage of the signal elicited by the agonist in the absence of inhibitor (n=2) (FIGS. 1A, 1B and 1C).

[3] = test system: HIV-1BaL; experiment: HIV-1 replication assay in peripheral blood mononuclear cells; type: cell-based; conditions: PBMC from a panel of US donors, FIG. 2
Method: For each donor, each compound was evaluated at 9 concentrations in triplicate. Each point represents log IC50 for an individual donor.

[4] = target: T1, recombinant human CCR1; experiment: GTPγ35S functional assay, inhibition testing, CCR1; type: biochemical; conditions: FIG. 3A
Method: (§1) Assay buffer was 20 mM HEPES pH 7.4; 200mM NaCl, 10 μg/ml saponin, MgCl2 at optimized concentration for the specific receptor, 0.1% BSA. CHO-K1 cells expressing recombinant human receptor membrane extracts were thawed on ice, diluted in assay buffer and kept on ice. GDP was diluted in assay buffer to give optimized concentration for the specific receptor. Beads were PVT-WGA (PerkinElmer, RPNQ001), diluted in assay buffer at a concentration optimized for the specific receptor. GTPγ^35S (PerkinElmer NEG030X) was diluted in assay buffer to give 0.1 nM.
(§2) For inhibition testing, membranes were mixed with GDP and incubated for at least 15 min on ice. In parallel, GTPγ^35S was mixed with the beads just before starting the reaction. The following reagents were successively added in the wells of an Optiplate (PerkinElmer): 50 μL of test or reference ligand, 20 μL of the membranes:GDP mix, 10 μL of reference agonist at historical EC80 and 20 μL of the GTPγ^35S:beads mix.
(§3) The plates were covered with a top seal, mixed on an orbital shaker for 2 min, and then incubated for 1 hour at room temperature. Then the plates were centrifuged for 10 min at 2000 rpm, incubated at room temperature for 1 hour and counted for 1 min/well with a PerkinElmer TopCount reader. […]
(§4) Dose-response data were analyzed with XLfit (IDBS) software using nonlinear regression applied to a sigmoidal dose-response model.

[5] = target: T2, recombinant human CCR3; experiment: GTPγ35S functional assay, inhibition testing, CCR3; type: biochemical; conditions: CHO-K1 membrane extracts; reference agonist at EC80; FIG. 3B
Method: as §1, §2, §3, §4

[6] = test system: CT-26 colorectal cancer cell line; experiment: CT-26 colorectal cancer animal model; type: in vivo, BALB/c mice; conditions: for tumor growth / mean tumor volume: intraperitoneal
From the text: In one experiment, BALB/c mice were inoculated subcutaneously with the CT-26 colorectal cancer cell line. […] Treatment was given daily or every third day.
In another experiment, BALB/c mice were inoculated subcutaneously with the CT-26 colorectal cancer cell line. […] 5P12-RANTES treatment was given five times a week.

[7] = Preclinical single dose intravenous infusion, cynomolgus macaques; type: in vivo; conditions: 20 mg/kg
From the text: (§5) These findings indicate that this N-terminally modified RANTES variant and its structurally related analogs have enhanced efficacy compared to MVC which is known to be therapeutically effective against several types of cancer, with very little side effects.

[8] = Preclinical single dose intravenous infusion, rats; type: in vivo; conditions: 20 mg/kg
From the text: as §5

Molecule	IC50 of inhibition of CCL4-induced CCR5 signaling (aequorin calcium sensor, CHO cells), FIG. 1C [1] [nM]	IC50 [2] [nM]	times more potent than MVC in inhibiting HIV-1 replication [3]	antagonism of CCR1 ([4]; CHO-K1 membrane extracts, reference agonist at EC80)	potentiation of CCR1 signaling ([4]; at the highest concentrations)	antagonism towards CCR3 [5]	adverse events during treatment ([6]; anti-CTLA-4 experiment, start ten days after inoculation)	adverse events during treatment ([6]; anti-PD-1 experiment, start three days after inoculation)	tumor growth / mean tumor volume ([6]; start ten days after inoculation, five times a week, anti-CTLA-4 experiment, FIG. 4B)	tumor growth / mean tumor volume ([6]; start three days after inoculation, daily or every third day, anti-PD-1 experiment, FIG. 4A)	adverse events [7]	adverse events [8]
B1	5.6	5.6	–	–	–	–	–	–	–	–	–	–
B2	–	–	10-30 times	no antagonism	moderate level of potentiation	no antagonism	No adverse events	No significant adverse events	delayed tumor growth at multiple time-points	statistically significant delayed tumor growth at multiple time-points	without any adverse events	without any adverse events
